According to US20030049646A1 (METROHEALTH SYSTEM, published 2003):

B1: Kv2.1 N-terminus (amino acids 1-168), in pGBT9 (other, UniProt P04386 1-147, looked up)
chain: MKLLSSIEQACDICRLKKLKCSKEKPKCAKCLKNNWECRYSPKTKRSPLTRAHLTEVESRLERLEQLFLLIFPREDLDMILKMDSLQDIKALLTGLFVQDNVNKDAVTDRLASVETDMPLTLRQHRISATSSSEESSNKGQRQLTVSMPAGMTKHGSRSTSSLPPEPMEIVRSKACSRRVRLNVGGLAHEVLWRTLDRLPRTRLGKLRDCNTHDSLLQVCDDYSLEDNEYFFDRHPGAFTSILNFYRTGRLHMMEEMCALSFSQELDYWGIDEIYLESCCQARYHQKKEQMNEELKREAETLREREGEEFDNTCC
B2: Kvβ1C (carboxyl terminal 329 amino acids of the Kvβ1 subfamily), in pGBT9 (other, UniProt P04386 1-147, looked up)
chain: MKLLSSIEQACDICRLKKLKCSKEKPKCAKCLKNNWECRYSPKTKRSPLTRAHLTEVESRLERLEQLFLLIFPREDLDMILKMDSLQDIKALLTGLFVQDNVNKDAVTDRLASVETDMPLTLRQHRISATSSSEESSNKGQRQLTVSHRNLGKSGLRVSCLGLGTWVTFGGQISDEVAERLMTIAYESGVNLFDTAEVYAAGKAEVILGSIIKKKGWRRSSLVITTKLYWGGKAETERGLSRKHIIEGLKGSLQRLQLEYVDVVFANRPDSNTPMEEIVRAMTHVINQGMAMYWGTSRWSAMEIMEAYSVARQFNMIPPVCEQAEYHLFQREKVEVQLPELYHKIGVGAMTWSPLACGIISGKYGNGVPESSRASLKCYQWLKERIVSEEGRKQQNKLKDLSPIAERLGCTLPQLAVAWCLRNEGVSSVLLGSSTPEQLIENLGAIQVLPKMTSHVVNEIDNILRNKPYSKKDYRS
notes: also called C-terminus of Kvβ1
B3: HERG N-terminus (amino acids 1-396), in pGBT9 (other, UniProt P04386 1-147, looked up)
chain: MKLLSSIEQACDICRLKKLKCSKEKPKCAKCLKNNWECRYSPKTKRSPLTRAHLTEVESRLERLEQLFLLIFPREDLDMILKMDSLQDIKALLTGLFVQDNVNKDAVTDRLASVETDMPLTLRQHRISATSSSEESSNKGQRQLTVSMPVRRGHVAPQNTFLDTIIRKFEGQSRKFIIANARVENCAVIYCNDGFCELCGYSRAEVMQRPCTCDFLHGPRTQRRAAAQIAQALLGAEERKVEIAFYRKDGSCFLCLVDVVPVKNEDGAVIMFILNFEVVMEKDMVGSPAHDTNHRGPPTSWLAPGRAKTFRLKLPALLALTARESSVRSGGAGGAGAPGAVVVDVDLTPAAPSSESLALDEVTAMDNHVAGLGPAEERRALVGPGSPPRSAPGQLPSPRAHSLNPDASGSSCSLARTRSRESCASVRRASSADDIEAMRAGVLPPPPRHASTGAMHPLRSGLLNSTSDSDLVRYRTISKIPQITLNFVDLKGDPFLASPTSDREIIAPKIKERTHNVTEKVTQVLSLGADVLPEYKLQAPRIH
notes: also called N-terminus of the delayed rectifier K+ channel, HERG
B4: KChAP-Y (partial clone of KChAP from W310 to the C-terminus), in pGAD10 (other, not shown: large carriers)
chain: WTCPVCDKKAPYESLIIDGLFMEILNSCSDCDEIQFMEDGSWCPMKPKKEASEVCPPPGYGLDGLQYSPVQEGNQSENKKRVEVIDLTIESSSDEEDLPPTKKHCPVTSAAIPALPGSKGALTSGHQPSSVLRSPAMGTLGSDFLSSLPLHEYPPAFPLGADIQGLDLFSFLQTESQHYSPSVITSLDEQDTLGHFFQFRGTPPHFLGPLAPTLGSSHRSATPAPAPGRVSSIVAPGSSLREGHGGPLPSGPSLTGCRSDVISLD
notes: also called KChAP-Y plasmid

Assays:
Test in all cases: yeast two-hybrid (Y190, pGAD10 x pGBT9), β-galactosidase filter assay
[1] = target: T1, human Gu binding protein (GBP), in pGAD10 (human, UniProt O75925 55-651, limits assumed)
T1 construct: Comparison protein, about 50% homologous to KChAP
Protocol: (§1) In the indirect procedure, the yeast Matchmaker Two-Hybrid System Clontech and cDNA molecules encoding KChAP and KChAP-Y were used. The binding specificity between full length KChAP or KChAP-Y and the following Kvα, Kvβ and other K+ channel subunit fragments were determined: Kvβ1.2 (amino acids 1-408), Kvβ1.2-N terminus (amino acids 1-79), Kvβ1C (carboxyl terminal 329 amino acids of the Kvβ1 subfamily), Kvβ2 (amino acids 1-367); Kv1.1-N terminus (amino acids 1-168), Kv1.2 N-terminus (amino acids 1-124), Kv1.4 N-terminus (amino acids 1-305), Kv1.4 C-terminus (amino acids 562-654), Kv1.5 N-terminus (amino acids 1-248), Kv2.1 N-terminus (amino acids 1-168), Kv2.2 N-terminus (amino acids 1-185), Kv6.1 N-terminus (amino acids 1-209), Kir2.2 N-terminus (amino acids 1-86), and HERG N-terminus (amino acids 1-396). The ability of human Gα-binding protein (GBP) to bind to these fragments was also determined.
(§2) Protein-protein interactions were tested by co-transformation of the yeast host strain Y190 with a pGAD10 plasmid containing inserts encoding KChAP-Y, KChAP or GBP with a pGBT9 plasmid containing an insert encoding one of the K+ channel protein fragments. pGBT9 is a GAL4 DNA binding domain [BD] vector. Co-transformants were plated on medium lacking trp and leu and grown for 2.5 days at 30° C. Yeast colonies were lifted to paper filters and assayed for β-galactosidase activity. Appearance of blue color within 8 hours was scored as a positive interaction between the proteins encoded by the two plasmids.

[2] = target: T2, KChAP (K+ Channel Associated Protein), full length, in pGAD10 (rat, UniProt O70260 55-628)
T2 construct: Yeast two-hybrid construct; also called full length KChAP
T2 sequence: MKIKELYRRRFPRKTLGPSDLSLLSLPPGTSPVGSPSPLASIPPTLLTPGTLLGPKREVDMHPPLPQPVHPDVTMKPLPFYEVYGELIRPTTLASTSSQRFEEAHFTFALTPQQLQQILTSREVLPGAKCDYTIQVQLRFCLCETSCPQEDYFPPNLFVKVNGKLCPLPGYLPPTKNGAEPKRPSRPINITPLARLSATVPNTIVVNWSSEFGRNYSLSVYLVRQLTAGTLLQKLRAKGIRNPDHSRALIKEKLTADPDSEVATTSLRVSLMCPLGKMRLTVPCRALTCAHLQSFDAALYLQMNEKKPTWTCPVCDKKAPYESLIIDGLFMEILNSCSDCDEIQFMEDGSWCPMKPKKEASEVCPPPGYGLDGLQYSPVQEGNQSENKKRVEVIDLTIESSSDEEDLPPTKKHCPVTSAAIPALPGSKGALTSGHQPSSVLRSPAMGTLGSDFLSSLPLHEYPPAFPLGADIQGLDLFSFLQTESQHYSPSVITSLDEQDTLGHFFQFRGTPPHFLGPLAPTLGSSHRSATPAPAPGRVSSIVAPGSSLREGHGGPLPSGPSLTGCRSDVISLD
Protocol: as §1, §2

[3] = target: B3
Protocol: as §1, §2

T1 sequence (O75925 55-651 limits assumed): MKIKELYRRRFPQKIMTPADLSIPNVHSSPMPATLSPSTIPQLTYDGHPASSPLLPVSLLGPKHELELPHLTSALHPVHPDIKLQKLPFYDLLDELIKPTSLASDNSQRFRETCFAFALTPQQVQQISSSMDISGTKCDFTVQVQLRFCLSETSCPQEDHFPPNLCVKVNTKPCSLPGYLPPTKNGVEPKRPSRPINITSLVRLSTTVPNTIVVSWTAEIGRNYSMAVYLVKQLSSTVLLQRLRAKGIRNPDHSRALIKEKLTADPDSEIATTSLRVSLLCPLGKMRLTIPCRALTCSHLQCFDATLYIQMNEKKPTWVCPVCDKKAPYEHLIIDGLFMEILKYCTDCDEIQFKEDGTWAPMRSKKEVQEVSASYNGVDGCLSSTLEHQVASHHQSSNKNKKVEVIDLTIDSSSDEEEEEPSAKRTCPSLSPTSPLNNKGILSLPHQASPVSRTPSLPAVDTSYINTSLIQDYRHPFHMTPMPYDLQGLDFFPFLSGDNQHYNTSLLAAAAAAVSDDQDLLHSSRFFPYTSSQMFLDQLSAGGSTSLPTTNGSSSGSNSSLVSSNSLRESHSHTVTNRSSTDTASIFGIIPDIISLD

Binder	binding result [1]	binding result [2]	binding result [3]
B1	no binding	–	–
B2	no binding	–	–
B3	no binding	no binding	–
B4	–	–	no binding
